The target in experiment [1] is T1, Bacillus anthracis lethal factor (LF) polypeptide (Bacillus anthracis, UniProt P15917 34-809).
T1 sequence: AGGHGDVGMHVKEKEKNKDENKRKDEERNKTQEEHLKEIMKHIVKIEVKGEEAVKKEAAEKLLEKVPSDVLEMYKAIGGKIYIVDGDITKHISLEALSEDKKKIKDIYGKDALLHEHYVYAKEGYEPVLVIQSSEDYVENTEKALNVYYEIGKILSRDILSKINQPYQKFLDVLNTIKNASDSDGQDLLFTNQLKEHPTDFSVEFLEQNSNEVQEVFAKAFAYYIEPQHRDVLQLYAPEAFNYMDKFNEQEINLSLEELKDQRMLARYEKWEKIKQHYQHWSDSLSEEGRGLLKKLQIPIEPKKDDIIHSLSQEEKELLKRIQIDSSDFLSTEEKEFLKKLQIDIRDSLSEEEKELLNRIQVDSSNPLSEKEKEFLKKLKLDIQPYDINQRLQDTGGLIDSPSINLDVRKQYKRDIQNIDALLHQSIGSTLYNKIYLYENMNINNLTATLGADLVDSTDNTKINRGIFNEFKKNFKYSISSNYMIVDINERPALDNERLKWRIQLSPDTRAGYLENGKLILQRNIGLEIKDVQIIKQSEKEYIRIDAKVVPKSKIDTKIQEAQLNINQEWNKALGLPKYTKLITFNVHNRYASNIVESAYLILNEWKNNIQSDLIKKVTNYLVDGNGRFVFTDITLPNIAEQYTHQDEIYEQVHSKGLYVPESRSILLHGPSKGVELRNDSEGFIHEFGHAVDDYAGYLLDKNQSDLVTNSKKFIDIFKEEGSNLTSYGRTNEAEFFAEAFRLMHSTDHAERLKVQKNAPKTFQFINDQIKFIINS
As to the kind of experiment: Western blot and ELISA, plant-produced antibody. A general note: A western blot detects proteins with antibodies after separation by electrophoresis.

For experiment [2], the target named is Bacillus anthracis protective antigen (PA) polypeptide (Bacillus anthracis, UniProt P13423 30-764). Put plainly: Western blot and ELISA, plant-produced antibody.

The results in this text go back to patent publication US20100239594A1 (IBIO, published 2010).

Chain of Bacillus anthracis protective antigen (PA) polypeptide (P13423 30-764 limits assumed): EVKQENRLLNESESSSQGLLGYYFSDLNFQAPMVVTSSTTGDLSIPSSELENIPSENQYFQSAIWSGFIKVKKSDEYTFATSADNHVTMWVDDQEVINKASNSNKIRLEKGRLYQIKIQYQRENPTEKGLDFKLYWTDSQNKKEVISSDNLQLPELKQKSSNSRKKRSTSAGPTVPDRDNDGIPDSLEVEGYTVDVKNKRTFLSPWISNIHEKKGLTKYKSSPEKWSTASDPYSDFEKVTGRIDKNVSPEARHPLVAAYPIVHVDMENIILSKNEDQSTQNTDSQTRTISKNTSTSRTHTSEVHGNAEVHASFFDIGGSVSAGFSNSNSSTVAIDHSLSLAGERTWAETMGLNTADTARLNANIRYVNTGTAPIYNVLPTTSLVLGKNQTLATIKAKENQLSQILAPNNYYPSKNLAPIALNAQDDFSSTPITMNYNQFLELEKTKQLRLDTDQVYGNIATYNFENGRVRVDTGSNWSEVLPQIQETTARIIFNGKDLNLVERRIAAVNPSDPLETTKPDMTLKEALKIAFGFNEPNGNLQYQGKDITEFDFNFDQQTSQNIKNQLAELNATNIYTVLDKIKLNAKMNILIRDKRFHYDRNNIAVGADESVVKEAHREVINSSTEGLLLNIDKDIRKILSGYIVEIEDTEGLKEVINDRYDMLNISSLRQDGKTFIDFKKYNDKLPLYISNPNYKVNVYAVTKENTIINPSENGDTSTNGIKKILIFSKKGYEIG

B1: LF-1 huMAb, plant-produced LF antibody (antibody, V domains shown)
VH: EVQLLESGGGLVQPGGSLRLSCSGSGFMFSSYAMSWVRQAPGKGLEWVSGISGSGGTTNYADSVKGRFTISRDNSKNTLYMQMNSLRAEDTAVYYCAKDGVYGRLGGSDYWGQGTLVTVSS
VL: EIVLTQSPDFQSVSPKEKVTITCRASQSVGSSLHWYQQKPDQSPKLLIKYASQSFSGVPSRFSGSGSGTDFTLTINSLETEDAATYYCHQSSSLPLTFGGGTKVEIKR
As to B1, in experiment [1], the binding result is “binds”.

B2: PA-1 huMAb, plant-produced glycosylated PA antibody (antibody, V domains shown)
VH: QVQLVQSGAEVKKPGASVKVSCKASGYTFTSNAIQWVRQAPGQRLEWVGWINGGDGNTKYSQKFQGRVTISRDISASTAYMELSSLRSEDTAVYYCARHRLQRGGFDPWGQGTLVTVSS
VL: EIVLTQSPGTLSLSPGERATLSCRASQSVSYSSLAWYQQKPGQAPSLLIYGASSRATGIPDRFSGSGSGPDFTLTISRLEPEDFAVYYCQHYGNSPYTFGQGTKLEIKR
On to B2, for which, in experiment [2], the binding result was “binds”.
